Measurements reported in patent publication US10500249B2, “Compositions and methods for preventing or treating diseases, conditions, or processes characterized by aberrant fibroblast proliferation and extracellular matrix deposition” (MOERAE MATRIX, INC., priority 2014, dated 2019).

Key:
Assay in all cases: Kinase Profiling Assay
Type in all cases: biochemical
Settings in all cases: 100 μM
[1] = target: T1, ALK4 (h) (Homo sapiens, UniProt P36896)
T1 sequence (P36896 24-505): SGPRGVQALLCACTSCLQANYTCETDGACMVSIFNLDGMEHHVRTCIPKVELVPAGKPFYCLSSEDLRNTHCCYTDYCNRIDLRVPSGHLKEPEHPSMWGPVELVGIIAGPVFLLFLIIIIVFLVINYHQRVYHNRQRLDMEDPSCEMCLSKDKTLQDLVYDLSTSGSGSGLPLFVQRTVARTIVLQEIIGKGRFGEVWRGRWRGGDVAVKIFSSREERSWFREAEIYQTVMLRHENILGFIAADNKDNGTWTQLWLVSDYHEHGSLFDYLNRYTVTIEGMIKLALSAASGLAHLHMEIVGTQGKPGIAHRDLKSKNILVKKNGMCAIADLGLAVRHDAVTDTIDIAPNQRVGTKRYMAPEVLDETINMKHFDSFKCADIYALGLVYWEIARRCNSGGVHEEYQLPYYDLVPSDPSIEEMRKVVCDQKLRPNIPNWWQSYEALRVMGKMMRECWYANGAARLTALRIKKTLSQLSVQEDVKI
Method in brief: (§1)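 Measured twice per kinase, activity in presence of MK2 inhibitory peptide was calculated against a 100% activity control after radiometric phosphorylation of a cationic substrate, anionic filter capture and scintillation counting; one of 266 human kinases profiled for specificity.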

[2] = target: T2, EphB4 (h) (Homo sapiens, UniProt P54760)
T2 sequence (P54760 16-987): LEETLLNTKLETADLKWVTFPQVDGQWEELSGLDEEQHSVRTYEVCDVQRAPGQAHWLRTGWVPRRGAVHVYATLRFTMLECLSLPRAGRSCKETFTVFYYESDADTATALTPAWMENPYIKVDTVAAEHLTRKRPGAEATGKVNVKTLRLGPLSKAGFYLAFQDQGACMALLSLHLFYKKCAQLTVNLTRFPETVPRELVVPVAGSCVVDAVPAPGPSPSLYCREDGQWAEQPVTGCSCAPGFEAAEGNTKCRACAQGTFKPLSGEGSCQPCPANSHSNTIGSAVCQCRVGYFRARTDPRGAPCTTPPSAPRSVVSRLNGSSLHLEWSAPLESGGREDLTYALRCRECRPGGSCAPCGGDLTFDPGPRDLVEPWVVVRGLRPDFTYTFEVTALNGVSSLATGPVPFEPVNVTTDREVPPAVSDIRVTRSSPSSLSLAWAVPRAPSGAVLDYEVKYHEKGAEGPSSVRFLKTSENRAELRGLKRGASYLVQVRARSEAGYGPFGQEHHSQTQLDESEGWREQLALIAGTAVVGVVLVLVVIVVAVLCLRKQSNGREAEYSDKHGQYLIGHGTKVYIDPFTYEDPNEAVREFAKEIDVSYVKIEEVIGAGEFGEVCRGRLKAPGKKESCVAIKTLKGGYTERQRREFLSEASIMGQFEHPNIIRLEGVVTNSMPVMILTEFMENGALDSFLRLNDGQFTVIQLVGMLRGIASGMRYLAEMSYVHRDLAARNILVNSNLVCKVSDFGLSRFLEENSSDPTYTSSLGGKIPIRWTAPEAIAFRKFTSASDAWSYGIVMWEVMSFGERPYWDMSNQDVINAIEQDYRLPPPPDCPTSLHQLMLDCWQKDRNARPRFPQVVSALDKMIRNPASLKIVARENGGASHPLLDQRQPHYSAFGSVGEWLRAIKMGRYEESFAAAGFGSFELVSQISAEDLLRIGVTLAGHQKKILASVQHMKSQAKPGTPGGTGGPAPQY
Method in brief: as §1

[3] = target: T3, NEK11 (h) (Homo sapiens, UniProt Q8NG66)
T3 construct: purchased Millipore
T3 sequence (Q8NG66 1-645): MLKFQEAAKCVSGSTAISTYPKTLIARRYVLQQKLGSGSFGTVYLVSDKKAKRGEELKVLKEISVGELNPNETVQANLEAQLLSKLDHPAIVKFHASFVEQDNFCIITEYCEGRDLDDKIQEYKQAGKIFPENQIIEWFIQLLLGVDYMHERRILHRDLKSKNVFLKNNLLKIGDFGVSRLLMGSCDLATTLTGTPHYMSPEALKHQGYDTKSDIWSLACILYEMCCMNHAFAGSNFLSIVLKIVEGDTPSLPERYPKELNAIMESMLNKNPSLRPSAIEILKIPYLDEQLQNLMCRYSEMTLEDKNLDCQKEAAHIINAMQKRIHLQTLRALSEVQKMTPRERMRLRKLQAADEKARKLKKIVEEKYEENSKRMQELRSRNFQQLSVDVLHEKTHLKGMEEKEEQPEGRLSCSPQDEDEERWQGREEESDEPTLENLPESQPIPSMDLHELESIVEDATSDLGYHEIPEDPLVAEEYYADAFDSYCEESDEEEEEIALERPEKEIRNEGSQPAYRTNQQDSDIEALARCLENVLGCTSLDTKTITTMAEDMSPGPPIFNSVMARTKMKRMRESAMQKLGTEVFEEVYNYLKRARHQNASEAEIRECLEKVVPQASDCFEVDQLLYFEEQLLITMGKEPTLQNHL
Method in brief: as §1

[4] = target: Ret (V804L) (h) (Homo sapiens, UniProt P07949, V804L)
Method in brief: as §1

[5] = target: T4, TSSK1 (h) (Homo sapiens, UniProt Q9BXA7)
T4 sequence (Q9BXA7 1-367): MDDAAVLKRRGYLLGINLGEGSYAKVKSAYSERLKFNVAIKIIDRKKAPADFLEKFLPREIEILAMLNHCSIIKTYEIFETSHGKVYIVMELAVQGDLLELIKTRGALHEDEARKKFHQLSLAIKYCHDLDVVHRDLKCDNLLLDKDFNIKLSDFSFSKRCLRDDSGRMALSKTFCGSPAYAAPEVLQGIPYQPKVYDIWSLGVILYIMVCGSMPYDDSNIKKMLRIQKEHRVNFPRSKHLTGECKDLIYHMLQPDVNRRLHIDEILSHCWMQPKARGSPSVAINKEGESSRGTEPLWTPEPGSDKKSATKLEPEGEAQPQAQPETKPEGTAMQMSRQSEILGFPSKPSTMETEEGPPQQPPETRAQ
Method in brief: as §1

FAKLAARLYRKALARQLGVAA [MMI-0300]
% activity [1]: 140%
% activity [2]: 44%
% activity [3]: 53%
% activity [4]: 79%
% activity [5]: 79%

HRRIKAWLKKIKALARQLGVAA (Mammalian) [MMI-0500]
% activity [1]: 81%
% activity [2]: 38%
% activity [3]: 2%
% activity [4]: 20%
% activity [5]: 46%

KAFAKLAARLYRKALARQLGVAA [MMI-0400]
% activity [1]: 130%
% activity [2]: 28%
% activity [3]: 33%
% activity [4]: 73%
% activity [5]: 79%

YARAAARQARAKALNRQLGVA (Mammalian) [MMI-0200]
% activity [1]: 152%
% activity [2]: 131%
% activity [3]: 95%
% activity [4]: 100%
% activity [5]: 98%
